Experimental data as given in PMC3131385, “TBP Binding-Induced Folding of the Glucocorticoid Receptor AF1 Domain Facilitates Its Interaction with Steroid Receptor Coactivator-1” (PLoS ONE, 2011).

T1: TBPC, 181 C-terminal residues of human TATA box binding protein (TBP) (human, UniProt P20226 159-339)
T1 chain: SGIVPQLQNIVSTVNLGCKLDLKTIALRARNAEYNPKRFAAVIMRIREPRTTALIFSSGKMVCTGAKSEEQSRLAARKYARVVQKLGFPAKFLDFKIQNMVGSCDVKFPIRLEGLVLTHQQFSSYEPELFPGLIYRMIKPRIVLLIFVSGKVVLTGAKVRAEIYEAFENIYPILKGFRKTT

B1: glucocorticoid receptor (GR) N-terminal activation function domain AF1 (domain or fragment, human, UniProt P04150 77-262, looked up)
chain: DLSKAVSLSMGLYMGETETKVMGNDLGFPQQGQISLSSGETDLKLLEESIANLNRSTSVPENPKSSASTAVSAAPTEKEFPKTHSDVSSEQQHLKGQTGTNGGNVKLYTTDQSTFDILQDLEFSSGSPGKETNESPWRSDLLIDENCLLSPLAGEDDSFLLEGNSNEDCKPLILPDTKPKIKDNGD
notes: human glucocorticoid receptor, AF1 domain, amino acid residues 77-262; made from human GR cDNA digested with BglII; also called GR AF1
B2: GR AF1:TBPC complex (complex, human)
chain 1: B1 chain
chain 2: T1 chain
notes: human glucocorticoid receptor, AF1 domain, amino acid residues 77-262; as m1; as m2; AF1, TBPC and the nuclear extract were mixed at once; only AF1 was detected on the blot; also called AF1 complexed with TBPC; source: purified AF1 and purified TBPC (10 µg) mixed together with HeLa nuclear extract
B3: TBPC, 181 C-terminal residues of human TATA box binding protein (TBP) (domain or fragment, UniProt P20226 159-339, looked up)
chain: T1 chain
notes: source: E. coli BL21(DE3), purified (NTA column, imidazole step-gradient)

How the values were obtained:
[1] = molecular target: T1, TBPC, 181 C-terminal residues of human …; test: SPR
[2] = molecular target: B3; test: SPR; TBPc immobilised on C1 chip (Fc2, 200-250 RU, through ionic interaction), AF1 as analyte 0.2-6.4 µM, multi-cycle kinetics, room temperature, 0.01 M HEPES pH 7.4, 0.15 M NaCl, 50 µM EDTA, 0.05% Tween-20; 1:1 Langmuir model, KD = kd/ka; conditions: both partners purified
[3] = molecular target: T2, steroid receptor coactivator-1 (SRC-1) (human (endogenous in HeLa), UniProt Q15788 1-1441); test: co-IP; SRC-1 antibody on protein A/G-agarose beads; HeLa nuclear extract (0.5 mg total protein) mixed with 10 µg purified AF1 and/or TBPC, 4°C; blot with GR AF1 antibody; conditions: one partner purified
T2 construct: source: endogenous, HeLa nuclear extract
T2 sequence (Q15788 whole entry): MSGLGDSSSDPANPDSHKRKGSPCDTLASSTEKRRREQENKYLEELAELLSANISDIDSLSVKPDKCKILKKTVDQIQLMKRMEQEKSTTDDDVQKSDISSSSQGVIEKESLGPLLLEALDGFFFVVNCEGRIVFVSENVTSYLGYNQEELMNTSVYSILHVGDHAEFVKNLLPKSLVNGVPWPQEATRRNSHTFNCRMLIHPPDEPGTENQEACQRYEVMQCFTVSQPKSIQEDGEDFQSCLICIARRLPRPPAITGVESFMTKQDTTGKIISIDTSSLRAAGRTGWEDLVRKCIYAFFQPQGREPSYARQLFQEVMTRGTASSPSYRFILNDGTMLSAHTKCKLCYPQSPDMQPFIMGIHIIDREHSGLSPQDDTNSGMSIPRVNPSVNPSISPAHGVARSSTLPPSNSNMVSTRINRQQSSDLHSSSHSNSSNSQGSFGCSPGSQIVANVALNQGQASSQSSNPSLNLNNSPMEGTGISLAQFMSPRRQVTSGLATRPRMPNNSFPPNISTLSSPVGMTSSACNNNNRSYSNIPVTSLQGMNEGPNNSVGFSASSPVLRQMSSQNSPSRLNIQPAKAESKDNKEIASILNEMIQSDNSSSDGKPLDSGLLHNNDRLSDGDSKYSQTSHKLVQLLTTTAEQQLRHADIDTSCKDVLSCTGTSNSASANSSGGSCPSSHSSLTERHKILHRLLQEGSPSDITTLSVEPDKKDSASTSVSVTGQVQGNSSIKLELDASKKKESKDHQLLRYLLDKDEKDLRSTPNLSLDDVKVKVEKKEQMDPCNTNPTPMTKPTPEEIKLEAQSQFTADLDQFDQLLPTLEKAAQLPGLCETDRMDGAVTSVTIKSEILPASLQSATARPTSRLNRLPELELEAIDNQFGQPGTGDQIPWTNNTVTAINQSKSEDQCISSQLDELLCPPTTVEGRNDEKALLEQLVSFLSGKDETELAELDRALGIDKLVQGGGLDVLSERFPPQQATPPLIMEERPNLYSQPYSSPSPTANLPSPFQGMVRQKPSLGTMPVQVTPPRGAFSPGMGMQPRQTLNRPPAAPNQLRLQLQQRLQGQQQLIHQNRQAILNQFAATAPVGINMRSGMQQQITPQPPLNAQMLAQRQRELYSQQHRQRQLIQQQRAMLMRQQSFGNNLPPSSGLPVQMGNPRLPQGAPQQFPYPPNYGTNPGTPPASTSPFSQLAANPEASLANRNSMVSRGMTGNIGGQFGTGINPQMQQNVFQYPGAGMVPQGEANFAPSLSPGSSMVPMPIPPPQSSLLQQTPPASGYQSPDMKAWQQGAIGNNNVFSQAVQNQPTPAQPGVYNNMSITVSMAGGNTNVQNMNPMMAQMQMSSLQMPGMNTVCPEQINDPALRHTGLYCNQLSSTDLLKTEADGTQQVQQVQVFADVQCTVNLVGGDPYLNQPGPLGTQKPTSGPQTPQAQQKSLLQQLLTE

[4] = molecular target: B1; test: circular dichroism titration; far-UV CD at 22°C, AF1 fixed at 4.5 µM, TBPC varied (AF1:TBPC 1:0.25 to 1:2); ellipticity at 220 nm, experimental against theoretical sum; conditions: both partners purified
[5] = molecular target: B1; test: SPR; TBPc immobilised on C1 chip (Fc2, 200-250 RU, through ionic interaction), AF1 as analyte 0.2-6.4 µM, multi-cycle kinetics, room temperature, 0.01 M HEPES pH 7.4, 0.15 M NaCl, 50 µM EDTA, 0.05% Tween-20; 1:1 Langmuir model, KD = kd/ka; conditions: both partners purified

Binder: B1
koff [1]: 0.00143 s⁻¹
stoichiometry N [2]: 1

Binder: B2
fold increase against AF1 alone [3]: ~8 fold

Binder: B3
stoichiometry N [4]: ~1
Kd [5]: 460 nM
